Measurements reported in PMC3901395, “Multivalent interactions of the SUMO-interaction motifs in RING finger protein 4 determine the specificity for chains of the SUMO” (Biochemical Journal, 2013).

Key:
[1] = test system: mono-SUMOs and SUMO chains; assay: ITC binding to mono-SUMOs and SUMO chains (general statements); details: full-length dimerized RNF4 vs SIM domain
From the text: (§1) For expression in Escherichia coli, linear poly-SUMO chains were generated as described previously with slight modifications. After the combined PCR/ligation reaction, the 4×SUMO2-ΔN11 or 4×SUMO1-ΔN15 DNA polymers were separated from smaller polymers by agarose gel electrophoresis and individually extracted (Macherey–Nagel). These were then subjected to a second PCR with primers to create BamHI and XhoI restriction sites, a C-terminal GG motif and a stop codon. The resulting fragments coding for di-, tri- and tetra-SUMO2-ΔN11 or SUMO1-ΔN15 chains were amplified and cloned into pGEX-4T2. […] Each monomer in these chains is separated by RS replacing the natural GG motif. A similar strategy was used to design C-terminally GFP–HA2-tagged linear poly-SUMOs in the copper-inducible Ycplac22 vector for expression in S. cerevisiae. […]
The mono-SUMOs and linear poly-SUMO1 and poly-SUMO2 proteins as well as all RNF4 constructs were expressed as GST-fusion proteins from E. coli Rosetta™ 2(DE3)pLysS cells (Novagen) cultivated in LB medium with 100 μg/ml ampicillin and 30 μg/ml chloramphenicol after induction with 0.1 mM IPTG at 20°C for 12 h. […]
Binding of peptides and proteins to SUMOs was investigated by ITC using either a VP-ITC or an ITC200 (GE Healthcare). […] Protein concentrations were determined by measuring the absorption at 280 nm. […]

di-SUMO2–GFP–HA2 = assay: Proteasomal targeting of di-SUMO2–GFP–HA2 by RNF4 in yeast; assay type: cell-based, S. cerevisiae
From the text: as §1, with “motif.” for “motif. A similar strategy was used to design C-terminally GFP–HA2-tagged linear poly-SUMOs in the copper-inducible Ycplac22 vector for expression in S. cerevisiae.”
wt (wild-type) S. cerevisiae strains (JD47-13C) containing centromeric (low copy) plasmids expressing various (SUMO2)n–GFP–HA2 ([…]) fusions were grown overnight in minimal medium composed of 0.67% yeast nitrogen base with 2% raffinose as a carbon source. Cells from the overnight cultures were used to inoculate cultures with minimal media containing 2% galactose at a starting attenuance measured at 600 nm of 0.25. […] The levels of substrates and, as a loading control, levels of CDC11 were analysed by Western blotting and detection with an Odyssey infrared fluorescence imaging system (LI-COR).

B1: RNF4 FL: full-length human RNF4 (RING finger protein 4); FLAG-tagged in yeast, HA-tagged in HeLa cells (protein)
chain: MSTRKRRGGAINSRQAQKRTREATSTPEISLEAEPIELVETAGDEIVDLTCESLEPVVVDLTHNDSVVIVDERRRPRRNARRLPQDHADSCVVSSDDEELSRDRDVYVTTHTPRNARDEGATGLRPSGTVSCPICMDGYSEIVQNGRLIVSTECGHVFCSQCLRDSLKNANTCPTCRKKINHKRYHPIYI
modifications: left off: GST, end not stated, cleaved
notes: full-length human RNF4 (RING finger protein 4); FLAG-tagged in yeast, HA-tagged in HeLa cells
- binding to SUMO chains compared with the monomeric SIM domain [1]: stronger as compared with the monomeric SIM domain, especially for short SUMO chains
- level of di-SUMO2–GFP–HA reporter (control without RNF4 = 100%) (di-SUMO2–GFP–HA2; yeast coexpressing RNF4, Western blot, normalized to CDC11): approximately 55%
- targeting of di-SUMO2 in yeast (di-SUMO2–GFP–HA2; yeast coexpressing wt RNF4): efficiently targets di-SUMO2 in yeast
